Each block holds one binder with its values, some of them ahead of it.
Key:
Human 4-1BB His = biological target: T1, Human 4-1BB His (human, UniProt Q07011 24-186); assay: BLI, antibody on AHC sensor, 100 nM 4-1BB His in solution
T1 construct: Bought protein; lots 198-2146F1-W6 and 2407c-214FF1-YC; also called human 4-1BB protein; 4-1BB protein; not shown: His tag
Excerpt: The variable region of the antibody sequence of the positive control consists of SEQ ID NO: 15 and SEQ ID NO: 19, with the addition of the constant region of human IgG1 (SEQ ID NO: 46 and SEQ ID NO: 47). The AHC sensor was soaked in 0.02% PBST (0.02% Tween 20, pH 7.4, 1× PBS) as a buffer for 600 s to remove the sucrose covering the sensor surface. The AHC sensor was equilibrated with 0.02% PBST (0.02% Tween 20, pH 7.4, 1× PBS) as a buffer for 60 s, the antibody in the sample plate was solidified for 300 s, and the secondary equilibration buffer was used for 180 s. 100 nM human 4-1BB His (manufacturer: Acro, CAT: 41B-H5258, LOT: 198-2146F1-W6) protein was bound to the antibody for 300 s and then dissociated for 600 s. After dissociation, 10 mM glycine (pH 2.0) was used as a regeneration buffer for 30 s. The sensor was regenerated with 10 mM glycine (pH 2.0).

Human TNFR2 mFc = biological target: T2, Human TNFR2 mFc (human, UniProt P20333 23-257); assay: bridging ELISA: Human TNFR2 mFc coated (0.3 ug/mL), antibody titrated, then Human 4-1BB His (0.3 ug/mL), HRP anti-His detection (Example 5)
T2 construct: Bought protein; not shown: mFc
T2 sequence (looked up): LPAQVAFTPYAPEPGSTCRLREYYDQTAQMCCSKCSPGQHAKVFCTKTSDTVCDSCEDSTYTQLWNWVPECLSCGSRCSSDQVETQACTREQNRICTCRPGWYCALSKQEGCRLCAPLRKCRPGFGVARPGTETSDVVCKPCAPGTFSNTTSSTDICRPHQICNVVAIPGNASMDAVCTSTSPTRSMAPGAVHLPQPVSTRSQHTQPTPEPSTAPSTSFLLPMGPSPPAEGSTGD

Human 4-1BB Fc = biological target: T3, Human 4-1BB Fc (human, UniProt Q07011 24-186); assay: bridging ELISA: Human 4-1BB Fc coated (0.3 ug/mL), antibody titrated, then Human-TNFR2-His (0.3 ug/mL), HRP anti-His detection (Example 4)
T3 construct: same catalogue and lot number as Human 4-1BB His; not shown: Fc
T3 sequence (Q07011 24-186 limits assumed): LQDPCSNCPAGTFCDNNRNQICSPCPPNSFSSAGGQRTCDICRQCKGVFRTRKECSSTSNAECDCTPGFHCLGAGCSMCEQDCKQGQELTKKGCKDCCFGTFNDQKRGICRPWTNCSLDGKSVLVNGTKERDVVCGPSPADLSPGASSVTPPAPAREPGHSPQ

T1 sequence (Q07011 24-186 limits assumed): as above

- Kd (Human 4-1BB His): 6.42 nM
- koff (Human 4-1BB His): 0.00435 s⁻¹
- kon (Human 4-1BB His): 677000 M⁻¹ s⁻¹
- EC50 (read off the curve) (Human TNFR2 mFc): ~0.07 nM
- EC50 (read off the curve) (Human 4-1BB Fc): ~0.3 nM
B1: Antibody H (bispecific antibody, human IgG1, kappa)
light: QVQLQESGPGLVKPSETLSLTCTVSGSSLTSYGVHWVRQPPGKCLEGLGVIWPGGSTNYNSALMSRVTISKDNSKSQVSLKMSSLTAADTAVYYCARVTGTWYFDVWGQGTTVTVSSGGGGSGGGGSGGGGSDIQMTQSPSSLSASLGDRVTISCSASQGISNYLNWYQQKPDGTVKLLIYYTSTLHSGVPSRFSGSGSGTDYTLTISSLQPEDIATYYCQQYSKLPWTFGCGTKLEIKGGGGSGGGGSGGGGSDIVMTQSPATLSVSPGERATLSCKASQNVGSNVDWYQQKPGQSPRVLIYKASIRYTGIPARFSGSGSGTEFTLTISILQSEDFAVYFCMQSKSYPITFGQGTKLEIKRTVAAPSVFIFPPSDEQLKSGTASVVCLLNNFYPREAKVQWKVDNALQSGNSQESVTEQDSKDSTYSLSSTLTLSKADYEKHKVYACEVTHQGLSSPVTKSFNRGEC
heavy: not shown
notes: IgG1 subtype; full-length TNFR2 antibody with 4-1BB scFv at the N-terminus of the light chains

- Kd (Human 4-1BB His): 12.2 nM
- koff (Human 4-1BB His): 0.00616 s⁻¹
- kon (Human 4-1BB His): 503000 M⁻¹ s⁻¹
- EC50 (read off the curve) (Human TNFR2 mFc): ~0.07 nM
- EC50 (read off the curve) (Human 4-1BB Fc): ~0.2 nM
B2: Antibody J1 (bispecific antibody, human IgG1, kappa)
light: DIQMTQSPSSLSASLGDRVTISCSASQGISNYLNWYQQKPDGTVKLLIYYTSTLHSGVPSRFSGSGSGTDYTLTISSLQPEDIATYYCQQYSKLPWTFGGGTKLEIKRTVAAPSVFIFPPSDEQLKSGTASVVCLLNNFYPREAKVQWKVDNALQSGNSQESVTEQDSKDSTYSLSSTLTLSKADYEKHKVYACEVTHQGLSSPVTKSFNRGEC
heavy: not shown
notes: IgG1 subtype; full-length 4-1BB antibody with TNFR2 VHH at the C-terminus of the heavy chains

- Kd (Human 4-1BB His): 17.5 nM
- koff (Human 4-1BB His): 0.00647 s⁻¹
- kon (Human 4-1BB His): 369000 M⁻¹ s⁻¹
- EC50 (read off the curve) (Human TNFR2 mFc): ~0.09 nM
- EC50 (read off the curve) (Human 4-1BB Fc): ~0.2 nM
B3: Antibody M1 (bispecific antibody, human IgG1, kappa)
light: B2 light
heavy: not shown
notes: IgG1 subtype; full-length 4-1BB antibody with TNFR2 VHH at the N-terminus of the heavy chains

- Kd (Human 4-1BB His): 18.1 nM
- koff (Human 4-1BB His): 0.00546 s⁻¹
- kon (Human 4-1BB His): 302000 M⁻¹ s⁻¹
- EC50 (read off the curve) (Human TNFR2 mFc): ~0.07 nM
- EC50 (read off the curve) (Human 4-1BB Fc): ~0.2 nM
B4: Antibody E1 (bispecific antibody, human IgG1, kappa)
light: DIVMTQSPATLSVSPGERATLSCKASQNVGSNVDWYQQKPGQSPRVLIYKASIRYTGIPARFSGSGSGTEFTLTISILQSEDFAVYFCMQSKSYPITFGQGTKLEIKRTVAAPSVFIFPPSDEQLKSGTASVVCLLNNFYPREAKVQWKVDNALQSGNSQESVTEQDSKDSTYSLSSTLTLSKADYEKHKVYACEVTHQGLSSPVTKSFNRGEC
heavy: not shown
notes: IgG1 subtype; full-length TNFR2 antibody with 4-1BB scFv at the C-terminus of the heavy chains

— patent US20260049151A1 (SHENGHE CHINA BIOPHARMACEUTICAL, published 2026)
